Assay [1] concerns the target LH1-RC complex of Rba. sphaeroides IL106 (wild type) (Rhodobacter sphaeroides f. sp. denitrificans strain IL106) (UniProt Q3J1A4). Description: sucrose density gradient centrifugation; supernatant of chromatophores solubilised with 1.0% w/v DDM on a stepwise sucrose gradient (10-40% w/v), 20 mM Tris-HCl pH 8.0, 0.05% w/v DDM, 4 °C, 150,000 x g, 6 h; ratio from volumes and absorption of the dimeric and monomeric layers.

The target of assay [2] is LH1-RC complex of the protein-U-deleted strain IL106-ΔU (Rhodobacter sphaeroides f. sp. denitrificans strain IL106) (UniProt Q3J1A4). The assay is described as above.

For “LH1-RC complex of Rba. sphaeroides IL106 (wild type) (from UniProt Q3J1A4 1-58; Q3J1A3 1-49; P0C0Y8 1-282; P0C0Y9 1-308; P0C0Y7 1-260; P13402 1-82)”, in assay [1], the ratio of dimeric to monomeric LH1-RC was found to be 0.44 and the stoichiometry N stood at 2.

In the case of “LH1-RC complex of the protein-U-deleted strain IL106-ΔU (from UniProt Q3J1A4 1-58; Q3J1A3 1-49; P0C0Y8 1-282; P0C0Y9 1-308; P0C0Y7 1-260; P13402 1-82)”, in assay [2], the ratio of dimeric to monomeric LH1-RC worked out at 0.15 and the stoichiometry N was 2.

The term stoichiometry N denotes a count of units in the complex or per binding partner.

Source of the values: paper PMC8564508.
